Data reported in patent US20080008713A1.

Target: mouse TNFR1 on L929 cells (mouse) (UniProt P25118)
Assay: cell-based or functional assay

Chain of mouse TNFR1 on L929 cells (mouse) (P25118 30-454): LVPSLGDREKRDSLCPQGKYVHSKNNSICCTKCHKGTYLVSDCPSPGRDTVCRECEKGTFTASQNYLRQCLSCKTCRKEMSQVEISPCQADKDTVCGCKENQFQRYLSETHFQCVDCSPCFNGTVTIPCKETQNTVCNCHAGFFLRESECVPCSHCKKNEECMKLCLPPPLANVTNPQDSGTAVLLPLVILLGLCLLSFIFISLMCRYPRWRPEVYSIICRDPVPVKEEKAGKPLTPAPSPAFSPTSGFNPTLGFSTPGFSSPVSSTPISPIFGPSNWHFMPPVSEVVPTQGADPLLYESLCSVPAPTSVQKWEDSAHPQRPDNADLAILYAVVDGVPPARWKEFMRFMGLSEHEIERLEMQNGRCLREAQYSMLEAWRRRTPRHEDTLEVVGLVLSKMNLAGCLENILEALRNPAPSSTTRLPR

Substance	ND50 of cell killing, modified L929 assay without TNF-α [nM]	ND50 of induced cytotoxicity, modified L929 assay without TNF-α [pM]
anti-TNFR1 antibody MAB430 (R&D Systems)	10	
anti-TNFR1 antibody AF-425-PB (R&D Systems)		100
